Results on one molecule are retold here after US12637662B2, “Cells, islets, and organoids that evade immune detection and autoimmunity, methods of production and use thereof” (SALK INSTITUTE FOR BIOLOGICAL STUDIES, priority 2018, dated 2026).

In one experiment the test system is HILO transcriptome. Put plainly: Bulk RNA-Seq transcriptional changes in HILOs. It counts as cell-based, human. As to conditions: WNT4 100 ng/ml for days 26-33. Here is the method:
Total RNA was isolated from cell pellets treated with RNAlater (Invitrogen) using the RNeasy micro kit (Qiagen) and treated with DNaseI (Qiagen) for 30 minutes at room temperature. Sequencing libraries were prepared from 100-500 ng total RNA using the TruSeq RNA Sample Preparation Kit v2 (Illumina) according to the manufacturer's protocol. Briefly, mRNA was purified, fragmented, and used for first- and second-strand cDNA synthesis followed by adenylation of 3′ ends. Samples were ligated to unique adapters and PCR amplified. Libraries were then validated using the 2100 BioAnalyzer (Agilent), normalized and pooled for sequencing.
RNA-Seq libraries prepared from 3 biological replicates for each experimental condition were sequenced on the Illumina HiSeq 2500 using bar-coded multiplexing and a 100 bp read length. […] This yielded a median of 29.9M usable reads per sample. Short read sequences were mapped to a UCSC hg19 reference sequence using the RNA-Seq aligner STAR (A. Dobin et al., 2013, Bioinformatics, 29:15-21). […] Transcript expression was calculated as gene-level relative abundance in fragments per kilobase of exon model per million (fpkm) mapped fragments and employed correction for transcript abundance bias (A. Roberts et al., 2011, Bioinformatics, 27:2325-2329). […] Scale of heatmaps was determined by Z-score (FIG. 2A, FIG. 3D and FIG. 3G).

Experiment [1] concerns human iPSC derived cells (islet-like organoids, MCS, HILOs). Description: Glucose-stimulated insulin/c-peptide secretion assay (GSIS, ELISA). It is filed as cell-based. On the procedure: Insulin release from intact islets was monitored using batch incubation methods as reported by E. Yoshihara et al., 2016, Cell metabolism, 23:622-634. Briefly, overnight-cultured, isolated pancreatic islets (RPMI-1640 medium supplemented with 10% (v/v) fetal bovine serum and 1% (v/v) Antibiotic-Antimycotic (Gibco)) were pre-cultured at 37° C. for 30 minutes in Krebs-Ringer bicarbonate buffer (KRBB) containing 129.4 mM NaCl, 3.7 mM KCl, 2.7 mM CaCl2), 1.3 mM KH2PO4, 1.3 mM MgSO4, 24.8 mM NaHCO3 (equilibrated with 5% CO2, 95% O2, pH 7.4), 10 mM HEPES and 0.2% (v/v) BSA (fraction V, Sigma) (KRBH) with 3 mM glucose). […] After 30 minutes, the islets were pelleted by centrifugation and secreted insulin levels were determined in the medium by Enzyme Linked Immunosorbent Assay (ELISA), (Rat/mouse Insulin ELISA KIT (Millipore) and Human Insulin ELISA KIT or ultrasensitive human c-peptide ELISA Kit (Millipore) for mouse and human islets, respectively). […] After 30 minutes, the cells were pelleted by centrifugation and c-peptide levels were determined in the supernatant medium using the human c-peptide ELISA KIT (Millipore). […]
Insulin release from intact islets was monitored using batch incubation methods (Yoshihara et al., 2010, Nat. Commun. 1:127). […] After 30 min, the cells were pelleted by centrifugation and c-peptide levels were determined by human c-peptide ELISA KIT (Millipore).
A general note: An ELISA detects its analyte on a solid surface through an enzyme-linked reagent.

Experiment [2] has as its system chromatin accessibility in HILO cells. Description: ATAC-Seq chromatin accessibility in HILOs. As to conditions: sorted GFP+ cells, WNT4 treatment. It is filed as cell-based, human. The source says: […] D. Buenrostro et al., 2015, Current Protocols in Molecular Biology, 109:21-29. Reads were aligned by Bowtie to hg19, and peaks were called by HOMER using default settings. Differential peaks and motif analyses from 2 biological duplicates were identified using HOMER essentially as instructed (see, e.g., S. Heinz et al., 2010, J. Mol. Cell, 38:576-589). Detailed methods for HOMER are freely available, e.g., at http://http://homer.salk.edu/homer/. Briefly, the program searches against the target and background sequences for enrichment of known motifs, and returns motifs enriched with a threshold of 1.5-fold change and a p-value of less than 0.05. Promoter regions, defined as 1 kilobase (kB) upstream from the transcription start site, of genes with enhanced chromatin accessibility upon Wnt4 treatment, were interrogated for enriched motifs of 8-16 bp using HOMER motif analysis.

B1: WNT4: recombinant human Wnt4 protein (R&D Systems), non-canonical WNT maturation factor (protein, UniProt P56705 23-351, looked up)
Protein Wnt-4: SNWLYLAKLSSVGSISEEETCEKLKGLIQRQVQMCKRNLEVMDSVRRGAQLAIEECQYQFRNRRWNCSTLDSLPVFGKVVTQGTREAAFVYAISSAGVAFAVTRACSSGELEKCGCDRTVHGVSPQGFQWSGCSDNIAYGVAFSQSFVDVRERSKGASSSRALMNLHNNEAGRKAILTHMRVECKCHGVSGSCEVKTCWRAVPPFRQVGHALKEKFDGATEVEPRRVGSSRALVPRNAQFKPHTDEDLVYLEPSPDFCEQDMRSGVLGTRGRTCNKTSKAIDGCELLCCGRGFHTAQVELAERCSCKFHWCCFVKCRQCQRLVELHTCR
For B1, in the experiment on HILO transcriptome, the “number of genes with decreased expression” value is 1354 genes and the “number of genes with increased expression” value stood at 1581 genes. The “glucose-stimulated insulin (c-peptide) secretion in vitro” value in experiment [1] (3 mM vs 20 mM glucose) is on record as “showed functional maturation”. In addition, the “pseudo-islet formation and GSIS of commercially-available hiPSC-derived β like cells” value in experiment [1] (3D differentiation medium containing WNT4) was “promoted pseudo-islet formation and GSIS functionality”. Besides, the “genes with both increased chromatin accessibility and induced expression” value in experiment [2] was found to be 123 genes.
